Experiment [1] addresses zip from GCN4 (T25-zip and T18-zip, positive control of the BACTH kit). Briefly: two-hybrid.
Experiment [2] concerns the target T1, N-terminally His-tagged PflB (E. coli, UniProt P09373 2-760).
T1 sequence: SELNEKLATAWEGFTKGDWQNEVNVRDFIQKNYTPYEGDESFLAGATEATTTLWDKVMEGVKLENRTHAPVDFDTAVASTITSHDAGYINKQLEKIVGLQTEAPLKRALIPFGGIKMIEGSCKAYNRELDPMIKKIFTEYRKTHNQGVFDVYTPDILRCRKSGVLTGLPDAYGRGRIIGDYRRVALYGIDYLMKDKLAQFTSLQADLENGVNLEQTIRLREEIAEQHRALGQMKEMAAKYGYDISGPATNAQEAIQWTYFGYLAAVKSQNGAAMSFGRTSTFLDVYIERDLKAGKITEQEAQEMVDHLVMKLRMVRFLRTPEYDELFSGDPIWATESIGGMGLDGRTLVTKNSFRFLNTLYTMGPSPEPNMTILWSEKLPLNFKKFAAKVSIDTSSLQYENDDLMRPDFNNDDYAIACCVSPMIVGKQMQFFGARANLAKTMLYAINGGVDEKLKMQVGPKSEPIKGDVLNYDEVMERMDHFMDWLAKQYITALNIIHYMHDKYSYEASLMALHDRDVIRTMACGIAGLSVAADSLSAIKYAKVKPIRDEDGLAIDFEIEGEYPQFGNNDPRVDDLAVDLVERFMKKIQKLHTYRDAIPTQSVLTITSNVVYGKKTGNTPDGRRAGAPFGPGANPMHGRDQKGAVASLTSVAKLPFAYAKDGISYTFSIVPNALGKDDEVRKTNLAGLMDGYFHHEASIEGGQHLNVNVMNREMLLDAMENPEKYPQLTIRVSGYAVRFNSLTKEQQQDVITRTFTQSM
Briefly: cross-linking.

In experiment [3] the target is T1, N-terminally His-tagged PflB. Briefly: pull-down.

For the molecule “zip from GCN4 (T25-zip and T18-zip, positive control of the BACTH kit) (domain or fragment)”, the β-galactosidase activity in experiment [1] amounted to 715 units.

B1: FocA, purified preparation used for BS2G cross-linking (natural protein, E. coli)
chain: MKADNPFDLLLPAAMAKVAEEAGVYKATKHPLKTFYLAITAGVFISIAFVFYITATTGTGTMPFGMAKLVGGICFSLGLILCVVCGADLFTSTVLIVVAKASGRITWGQLAKNWLNVYFGNLVGALLFVLLMWLSGEYMTANGQWGLNVLQTADHKVHHTFIEAVCLGILANLMVCLAVWMSYSGRSLMDKAFIMVLPVAMFVASGFEHSIANMFMIPMGIVIRDFASPEFWTAVGSAPENFSHLTVMNFITDNLIPVTIGNIIGGGLLVGLTYWVIYLRENDHH
In the case of B1, in experiment [2], the binding result is “binds”.

B2: N-terminally Strep-tagged FocA (formate channel A) (natural protein, E. coli, UniProt P0AC23 1-285, looked up)
chain: MKADNPFDLLLPAAMAKVAEEAGVYKATKHPLKTFYLAITAGVFISIAFVFYITATTGTGTMPFGMAKLVGGICFSLGLILCVVCGADLFTSTVLIVVAKASGRITWGQLAKNWLNVYFGNLVGALLFVLLMWLSGEYMTANGQWGLNVLQTADHKVHHTFIEAVCLGILANLMVCLAVWMSYSGRSLMDKAFIMVLPVAMFVASGFEHSIANMFMIPMGIVIRDFASPEFWTAVGSAPENFSHLTVMNFITDNLIPVTIGNIIGGGLLVGLTYWVIYLRENDHH
With B2, in experiment [3], the binding result was “binds”.

The values are drawn from PMC5560055 (Journal of molecular biology, 2014).
